In patent US20240400687A1 (Regeneron, published 2024):

T1: mouse PD1 (mPD1) (mouse, UniProt Q02242 25-288)
T1 construct: whole, on cells; also called murine PD1
T1 sequence (looked up): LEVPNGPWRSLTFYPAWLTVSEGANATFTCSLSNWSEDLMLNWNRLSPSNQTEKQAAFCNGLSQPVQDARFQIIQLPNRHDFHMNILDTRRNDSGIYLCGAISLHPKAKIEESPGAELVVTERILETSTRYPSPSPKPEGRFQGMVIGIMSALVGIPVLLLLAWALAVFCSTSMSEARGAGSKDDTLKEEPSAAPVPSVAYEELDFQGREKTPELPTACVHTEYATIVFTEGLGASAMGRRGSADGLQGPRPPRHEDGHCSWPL


Key:
mouse PD1 (mPD1) [1] = target: T1, mouse PD1 (mPD1); assay: flow cytometry on Jurkat/mPD1 cells
Experimental: Cells (HEK 293, MC38 over-expressing mCD20, or Jurkat over-expressing mPD1) were resuspended in FACS wash (PBS with 1% FBS) at 1×10⁶ cells/mL. The staining was performed in 1×10⁵ cells per well. The antibodies were diluted with a ratio of 1:5 from a starting concentration of 1.3×10⁻⁰⁷ M. The diluted antibodies were then added into the wells containing cells. Cells were stained for 30 min at 2-8° C. and washed twice with FACS wash buffer. APC-conjugated goat anti-human IgG (Jackson Immuno Research, 109-607-003, 1:400) or AF647-conjugated goat anti-mFc Fab (Jackson Immuno Research, 115-607-185, 1:400) was added to stain the cells for 30 min at 2-8° C. Following washing, cells were fixed in 2% paraformaldehyde for 30 min at 2-8° C. After two washes, stained cells were analyzed using BD LSRFortessa™ FACS instrument. The results were analyzed by FlowJo. FSC/SSC gates were used to select mononuclear cells.

mouse PD1 (mPD1) [2] = target: T1, mouse PD1 (mPD1); assay: cell-based or functional assay

binding result (mouse PD1 (mPD1) [1]) | Max % inhibition, luciferase bioassay, 1 nM CD3 bsAb (mouse PD1 (mPD1) [2]) [%] | Binder
no binding | – | 18B12-scFvFc (scFv, V domains shown) VH: QVQLQQPGAELVRPGTSVKLSCKASGYTFTSYWMHWIKQRPGQGLEWIGVIDPSDNYTKYNQKFKGKATLTVDTSSSTAYMQLSSLTSEDSAVYFCAREGYYGSSPWFAYWGQGTLVTVSS VL: QIVMSQSPAILSASPGEKVTMTCRARSSVSYIHWYQQKPGSSPKPWIYATSNLASGVPGRFSGSGSGTSYSLTITRVEAEDAATYYCQQWSSKPPTFGGGTKLEIK
no binding | 19 | 1B12IgG1EN (antibody, IgG, mCD20 x mCD20, 145.3 kDa; also called Molecule ID M) heavy 1: QVQLQQPGAELVRPGTSVKLSCKASGYTFTSYWMHWIKQRPGQGLEWIGVIDPSDNYTKYNQKFKGKATLTVDTSSSTAYMQLSSLTSEDSAVYFCAREGYYGSSPWFAYWGQGTLVTVSSASTKGPSVFPLAPSSKSTSGGTAALGCLVKDYFPEPVTVSWNSGALTSGVHTFPAVLQSSGLYSLSSVVTVPSSSLGTQTYICNVNHKPSNTKVDKKVEPKSCDKTHTCPPCPAPEAEGAPSVFLFPPKPKDTLMISRTPEVTCVVVDVSHEDPEVKFNWYVDGVEVHNAKTKPREEQYNSTYRVVSVLTVLHQDWLNGKEYKCKVSNKALPSSIEKTISKAKGQPREPQVYTLPPCRDELTKNQVSLWCLVKGFYPSDIAVEWESNGQPENNYKTTPPVLDSDGSFFLYSKLTVDKSRWQQGNVFSCSVMHEALHNHYTQKSLSLSPGK heavy 2: QVQLQQPGAELVRPGTSVKLSCKASGYTFTSYWMHWIKQRPGQGLEWIGVIDPSDNYTKYNQKFKGKATLTVDTSSSTAYMQLSSLTSEDSAVYFCAREGYYGSSPWFAYWGQGTLVTVSSASTKGPSVFPLAPSSKSTSGGTAALGCLVKDYFPEPVTVSWNSGALTSGVHTFPAVLQSSGLYSLSSVVTVPSSSLGTQTYICNVNHKPSNTKVDKKVEPKSCDKTHTCPPCPAPEAEGAPSVFLFPPKPKDTLMISRTPEVTCVVVDVSHEDPEVKFNWYVDGVEVHNAKTKPREEQYNSTYRVVSVLTVLHQDWLNGKEYKCKVSNKALPSSIEKTISKAKGQPREPQVCTLPPSRDELTKNQVSLSCAVKGFYPSDIAVEWESNGQPENNYKTTPPVLDSDGSFFLVSKLTVDKSRWQQGNVFSCSVMHEALHNRFTQKSLSLSPGK light: QIVMSQSPAILSASPGEKVTMTCRARSSVSYIHWYQQKPGSSPKPWIYATSNLASGVPGRFSGSGSGTSYSLTITRVEAEDAATYYCQQWSSKPPTFGGGTKLEIKRTVAAPSVFIFPPSDEQLKSGTASVVCLLNNFYPREAKVQWKVDNALQSGNSQESVTEQDSKDSTYSLSSTLTLSKADYEKHKVYACEVTHQGLSSPVTKSFNRGEC
